Here are results for two substances from PMC12608037.

Series [1] deals with YihW (CsqR) Nissle 1917 (Escherichia coli Nissle 1917). As to the kind of experiment: EMSA. To be noted: 50 mM Tris-Cl (pH not stated), 100 mM KCl, 50% glycerol, 1 mM EDTA (1x), 0.5 pmol DNA, 2-24 pmol YihW, 30 or 37 C, 30 min, 5% PAGE in 1x TBE, scale: protein:DNA molar ratio for complete binding. On the technique in general: In EMSA bound probe runs differently from free probe, usually more slowly.

For series [2], the system named is YihW (CsqR) K-12 MG1655 (Escherichia coli K-12 MG1655). In words: EMSA. The following applies: 50 mM Tris-Cl (pH not stated), 100 mM KCl, 50% glycerol, 1 mM EDTA (1x); 0.5 pmol DNA, 2-24 pmol YihW; 30 or 37 C, 30 min; 5% PAGE in 1x TBE; scale: protein:DNA molar ratio for complete binding.

For the substance yihU/V intergenic region, K-12 MG1655, the binding signal in series [1] (30 C, equal efficiency to Nissle fragment) amounted to 24; in series [2], 16.

On to yihU/V intergenic region, Nissle 1917, for which the binding signal in series [1] (30 C) was 24; in series [1] (37 C, some DNA free at 48x, weaker than K-12 fragment) it was above 48; in series [2], 16.
